Values joined by “and” are separate entries in the source; they are usually repeats but may differ in a detail not shown here. Equal entries are not always repeated.
Tests used:
[1] = biological target: ZmBAM7-S (short form of corn BAM7), full-length recombinant protein (Zea mays); test: SEC
[2] = biological target: ZmBAM7-S (short form of corn BAM7), full-length recombinant protein (Zea mays); test: SAXS

How did the stoichiometry N [1] turn out when “ZmBAM7-S (short form of corn BAM7), full-length recombinant protein (enzyme)” was run?
The stoichiometry N was 4 subunits and 6 subunits.

What about the stoichiometry N [2] of the same substance?
The stoichiometry N was 4.
